Assay results from publication PMC5038948, “The Role of Neutrophil Proteins on the Amyloid Beta-RAGE Axis” (PLoS ONE, 2016).

What was measured:
Aβ1–42 [1] = target: T1, Aβ1–42 (Homo sapiens, UniProt P05067); assay: Far-Western dot blot: binding of Aβ1–42 to spotted neutrophil proteins; conditions: Aβ1–42 […] (56 nM) with protease inhibitor cocktail; 1 μg spotted protein
T1 construct: Amyloid beta 1–42 (Aβ1–42), a known RAGE ligand; purchased Bachem (Torrance, CA)
Description: After spotting, membranes were rinsed with ultrapure water, and Ponceau S (Sigma Aldrich) was used to stain for spotted proteins. Ponceau S was rinsed off with ultrapure water, and membrane blots were blocked for 2 h at room temperature in PBST containing 3% BSA. […] Blots were washed three times with PBST for 10 min, and then incubated with either rabbit anti-RAGE primary antibody (0.8μg/ml) or mouse anti-APP/Aβ (0.25μg/ml) for 2 h at room temperature. Blots were washed three times with PBST for 10 min, and then incubated with donkey anti-rabbit or donkey anti-mouse secondary antibodies at 0.04μg/ml for 45 min at room temperature. Blots were washed three times with PBST. Enhanced chemiluminescent or SuperSignal West femto maximum sensitivity substrates (Pierce) were used to develop blots. Mean dot densities were quantified and normalized to ponceau S dot densities using Image J software (National Institutes of Health (NIH), Bethesda, MD).
Blots were incubated with rocking overnight at 4°C.
(§1) All statistics were performed using Graph Pad Prism 6 (GraphPad Software, La Jolla, CA). Data are represented as mean± SEM of results. […] Two-way analysis of variances (ANOVAs) were performed with Dunnett’s multiple comparison tests. […] Kruskal-Wallis tests with Dunn’s multiple comparison tests were used to analyze binding by Far-Western dot blotting (see figure legends 3 and 6 for details on multiple comparison tests). […] To obtain dissociation constants (Kd), half-maximal inhibitory concentrations (IC50), and maximum absorbance values, BSA was subtracted as background and values were fitted to a curve of nonlinear regression.

RAGE Fc chimera [2] = target: T2, RAGE Fc chimera (Homo sapiens, UniProt Q15109); assay: Far-Western dot blot: binding of RAGE to spotted proteins ± GM-0111; design: purchased R&D Systems Inc. (Minneapolis, MN); conditions: 1 μg spotted protein (0.5 μg Aβ1–42)
Description: as §1

Aβ1–42 [3] = target: T1, Aβ1–42; assay: ELISA: binding of Aβ1–42 to coated neutrophil proteins; conditions: for Log binding (Aβ1–42): 0.5 μg/well coated protein, with protease inhibitor cocktail, log OD 492 nm, mean ± SEM, n = 3; for maximum absorbance value for Aβ1–42 binding: ELISA with protease inhibitors, BSA subtracted, nonlinear regression fit
Description: (§2) The plates were washed three times with PBS containing 0.05% tween (PBST), and then blocked in PBST containing 3% bovine serum albumin (BSA). Indicated proteins were added to the plate in 50 μL PBST containing 0.1% BSA and incubated at 37°C for 70 mins. Wells were washed four times with PBST, and then incubated with 50 μL of goat anti-RAGE primary antibody (0.5 μg/ml) or mouse anti-APP/Aβ antibody (0.5 μg/ml-1 μg/ml) for 1 h. After washing the wells four times with PBST, 50 μL of rabbit anti-goat at 0.16 μg/ml or donkey anti-mouse at 0.04–0.08 μg/ml secondary antibodies were added for 1 h at room temperature.
as §1

RAGE Fc chimera [4] = target: T2, RAGE Fc chimera; assay: ELISA: binding of RAGE to coated neutrophil proteins; design: purchased R&D Systems Inc. (Minneapolis, MN); conditions: for maximum absorbance value for RAGE binding: ELISA, BSA subtracted as background, nonlinear regression fit; for Log binding (RAGE): wells coated 0.5 μg/well protein, log-transformed OD 492 nm, mean ± SEM
Description: as §2
Goat anti-RAGE primary antibody at 0.5 μg/ml was used to detect bound RAGE.
as §1

RAGE Fc chimera [5] = target: T2, RAGE Fc chimera; assay: ELISA: Aβ1–42 binding to RAGE after pre-incubation of Aβ1–42 with neutrophil proteins; design: purchased R&D Systems Inc. (RAGE Fc chimera); Bachem (Aβ1–42)
Description: as §2
In this set of experiments, the maxisorp plates were coated with RAGE Fc chimera (0.5 μg/well, 83.3 nM) overnight at 4°C.
as §1

Aβ1–42 binding to RAGE = target: T3, Aβ1–42 binding to RAGE (Homo sapiens, UniProt Q15109); assay: ELISA: competitive inhibition of Aβ1–42 binding to RAGE by neutrophil proteins added simultaneously
T3 construct: purchased R&D Systems Inc. (RAGE Fc chimera); Bachem (Aβ1–42)
Description: as §2, §1

T2 sequence (Q15109 with tags, fused parts or gaps limits assumed): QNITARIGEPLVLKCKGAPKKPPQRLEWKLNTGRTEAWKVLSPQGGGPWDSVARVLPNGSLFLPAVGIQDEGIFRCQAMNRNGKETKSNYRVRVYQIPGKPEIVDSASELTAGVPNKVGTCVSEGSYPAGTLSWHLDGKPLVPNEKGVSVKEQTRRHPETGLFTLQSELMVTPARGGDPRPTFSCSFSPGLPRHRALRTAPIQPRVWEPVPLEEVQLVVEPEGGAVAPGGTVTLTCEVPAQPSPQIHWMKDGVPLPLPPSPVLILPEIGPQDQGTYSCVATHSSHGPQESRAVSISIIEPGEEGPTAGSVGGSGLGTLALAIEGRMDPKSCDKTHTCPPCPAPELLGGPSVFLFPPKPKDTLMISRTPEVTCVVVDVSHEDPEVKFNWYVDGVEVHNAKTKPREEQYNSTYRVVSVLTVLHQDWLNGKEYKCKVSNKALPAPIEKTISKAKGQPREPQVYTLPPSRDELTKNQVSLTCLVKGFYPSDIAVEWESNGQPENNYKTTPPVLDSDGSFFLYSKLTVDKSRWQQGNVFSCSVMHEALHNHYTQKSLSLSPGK
T3 sequence (Q15109 with tags, fused parts or gaps limits assumed): as above

Substance | binding of Aβ1–42 (far-Western dot blot) (Aβ1–42 [1]) | binding of RAGE (far-Western dot blot) (RAGE Fc chimera [2]) | Log binding (Aβ1–42) (Aβ1–42 [3]; Aβ1–42 0 nM (background)) | Log binding (Aβ1–42) (Aβ1–42 [3]; Aβ1–42 3.47 nM) | Log binding (Aβ1–42) (Aβ1–42 [3]; Aβ1–42 13.89 nM) | Log binding (Aβ1–42) (Aβ1–42 [3]; Aβ1–42 27.78 nM) | Log binding (Aβ1–42) (Aβ1–42 [3]; Aβ1–42 55.56 nM) | maximum absorbance value for Aβ1–42 binding (Aβ1–42 [3]) | maximum absorbance value for RAGE binding (RAGE Fc chimera [4]) | Log binding (RAGE) (RAGE Fc chimera [4]; RAGE 0 nM (background)) | Log binding (RAGE) (RAGE Fc chimera [4]; RAGE 0.83 nM) | Log binding (RAGE) (RAGE Fc chimera [4]; RAGE 1.67 nM) | Log binding (RAGE) (RAGE Fc chimera [4]; RAGE 3.33 nM) | Log binding (Aβ1–42) (Aβ1–42 [3]; Aβ1–42 […]) | maximum absorbance value for Aβ1–42 binding to RAGE (RAGE Fc chimera [5]; Aβ1–42 pre-incubated with neutrophil elastase 2 μg/ml) [OD 492 nm] | Kd (RAGE Fc chimera [5]; read-out: KD value for Aβ1–42 binding to RAGE, Aβ1–42 pre-incubated overnight 4°C with neutrophil elastase 2 μg/ml (80 nM)) [nM] | IC50 (Aβ1–42 binding to RAGE; read-out: IC50 for inhibition of Aβ1–42 binding to RAGE, Aβ1–42 11 nM added simultaneously with the protein to RAGE-coated wells, absence of protease inhibitors) [nM] | inhibition of Aβ1–42 binding to RAGE in the presence of protease inhibitors (Aβ1–42 binding to RAGE; with protease inhibitor cocktail, Aβ1–42 11 nM)
bovine serum albumin [BSA, reference compound] | No binding | did not detect visible binding | – | – | – | – | – | – | – | – | – | – | – | – | – | – | – | –
cathepsin G | strong binding | not significantly higher than RAGE binding to BSA | • -0.884±0.103 • p = 0.0004 | • -0.368±0.157 • p<0.0001 | • 0.019±0.165 • p<0.0001 | • 0.151±0.149 • p<0.0001 | • 0.310±0.125 • p<0.0001 | 3.54 | 2.14 | -0.426 | • 0.101±0.084 • p<0.0001 | • 0.166±0.092 • p<0.0001 | • 0.192±0.096 • p<0.0001 | – | – | – | – | –
neutrophil elastase | low binding | did not detect visible binding | -1.061 | -0.961 | • -0.720±0.151 • p = 0.0064 | • -0.414±0.154 • p<0.0001 | • -0.146±0.153 • p<0.0001 | 5.89 | 1.11 | -0.756 | -0.376 | • -0.274±0.113 • p = 0.046 | • -0.121±0.104 • p = 0.003 | • -0.890±0.127 • p = 0.0064 | 0.15 | 131 | 4.85 | No inhibition
